In patent EP4703380A1, “INTEGRIN-TARGETING ANTIBODIES AND USE THEREOF” (NIO BIOPHARMACEUTICALS. INC., priority 2023, dated 2024):
“And” between values parts separate entries of the source, which are not always exact repeats. Equal entries are not always repeated.

How the values were obtained:
[1] = system: PANC-1; assay: Pancreatic cancer xenograft efficacy; format: in vivo, mice; settings: PANC-1 xenograft, NOD/SCID
Procedure: PANC-1 (3 × 10^6) cancer cells were subcutaneously injected into NOD/SCID (female 5-week-old) mice. When the tumor volume reached […], the PS4-vcMMAE conjugate was intraperitoneally injected at 5 mg/kg or 10 mg/kg once every 5 days for a total of 3 times. The control group was treated with PBS, and the efficacy was evaluated with 3-4 mice per group. After the experiment, the tumors were excised, and the size of the tumor tissues in each experimental group was compared. All animal experiments were performed in accordance with the protocol approved by the Institutional Animal Care and Use Committee (IACUC) of Kangwon National University (KW-210728-3).

[2] = system: MKN45; assay: AlamarBlue cell growth inhibition, MKN45; format: cell-based; settings: Stomach, MKN45, 4 days
Procedure: (§1) First, an appropriate number of cells (3x10^3 to 1x10^4 cells) for each cancer cell line were dispensed into each well of a 96-well plate and cultured for 24 hours at 37°C, 5% CO2, and then the medium was replaced with fresh growth medium. Then, sequentially diluted antibody-drug conjugates were added to each well, and the cells were cultured for 4 days under 37°C, 5% CO2 conditions, and then treated with AlamarBlue (Invitrogen). The fluorescence values were measured at Ex530 and Em590 every 2, 4, and 6 hours (PerkinElmer Victor x4). The obtained fluorescence values were analyzed with Prism4 (GraphPad) to determine the EC50 value. Each experiment was repeated three times.

[3] = system: BT20; assay: AlamarBlue cell growth inhibition, BT20; format: cell-based; settings: TNBC, BT20, 4 days
Procedure: as §1

[4] = system: MDA-MB-231 ITGA KO; assay: AlamarBlue cell growth inhibition, ITGA3 knockout negative control line; format: cell-based; settings: breast cancer cell line with ITGA3 subunit knocked out
Procedure: MDA-MB-231 cells with ITGA3 gene knockout were generated as follows. sgRNAs targeting exon 17 ([…]) of the ITGA3 gene were subcloned using the CRISPR-Cas9-2A-Puro V2.0 (Addgene) system. MDA-MB-231 cells were transfected with CRISPR-Cas9/sgRNA and cultured at 37°C, 5% CO2 for 72 hours. Afterwards, puromycin, the selection marker for the CRISPR-Cas9 vector, was added at a concentration of 250 ng/mL and selected for 18 days. Then, the target protein knockout efficiency was measured using flow cytometry (FACS calibur, FACS Aria, BD Biosciences), and knockout cells were isolated. MDA-MB-231 cells with ITGA3 knockout, i.e., MDA-MB-231/ITGA3 KO cell lines, were analyzed by flow cytometry using 3 µg/mL PS4 antibody and anti-human Fc-gamma specific Alexa Fluor-647 (1:800 dilution, Jackson ImmunoResearch Laboratories Inc.). In addition, MDA-MB-231/ITGA3 KO cell lysate (30 µg) was separated by SDS-PAGE and analyzed by Western blot using anti-ITGA3 (Antibodies-online) and anti-mouse Fc-gamma specific-HRP. Sample loading was compared using anti-beta-actin.
First, an appropriate number of cells (3x10^3 to 1x10^4 cells) for each cancer cell line were dispensed into each well of a 96-well plate and cultured for 24 hours at 37°C, 5% CO2, and then the medium was replaced with fresh growth medium. […] The fluorescence values were measured at Ex530 and Em590 every 2, 4, and 6 hours (PerkinElmer Victor x4). […]

[5] = system: UMUC-3; assay: AlamarBlue cell growth inhibition, UMUC-3; format: cell-based; settings: bladder, UMUC-3, 4 days
Procedure: as §1

[6] = system: Panc-1; assay: AlamarBlue cell growth inhibition, Panc-1; format: cell-based; settings: Pancreatic, Panc-1, 4 days
Procedure: as §1

[7] = system: Aspc-1; assay: AlamarBlue cell growth inhibition, Aspc-1; format: cell-based; settings: Pancreatic, Aspc-1, 4 days
Procedure: as §1

[8] = system: A549; assay: AlamarBlue cell growth inhibition, A549; format: cell-based; settings: Lung, A549, 4 days
Procedure: as §1

[9] = system: MDA-MB-231 cells; assay: Triple-negative breast cancer xenograft efficacy; format: in vivo, mice; settings: MDA-MB-231 xenograft
Procedure: Triple-negative breast cancer (TNBC) MDA-MB-231 cells (2x10^6 cells) were mixed with Matrigel at a 1:1 (v/v) ratio and injected subcutaneously into BALB/c nude or NOD/SCID mice (Nara Bio). When the tumor volume reached 100 mm^3, the PS4-vcMMAE antibody-drug conjugate was administered intraperitoneally at 5 mg/kg or 10 mg/kg once every 5 days for a total of 5 times. 2-3 mice were used in each group. All animal experiments were conducted in accordance with protocols approved by the Institutional Animal Care and Use Committee (IACUC) of Kangwon National University (KW-210728-3).

[10] = system: MDA-MB-231; assay: AlamarBlue cell growth inhibition, MDA-MB-231; format: cell-based; settings: TNBC, MDA-MB-231, 4 days
Procedure: as §1

[11] = system: CoCaB1; assay: AlamarBlue cell growth inhibition, CoCaB1; format: cell-based; settings: bladder, CoCaB1, 4 days
Procedure: as §1

[12] = system: MDA-MB-468; assay: AlamarBlue cell growth inhibition, MDA-MB-468; format: cell-based; settings: TNBC, MDA-MB-468, 4 days
Procedure: as §1

[13] = system: MDA-MB-453; assay: AlamarBlue cell growth inhibition, MDA-MB-453; format: cell-based; settings: TNBC, MDA-MB-453, 4 days
Procedure: as §1

[14] = Real-time thermal stability (SYPRO Orange); format: physicochemical; settings: 2 µM sample, 10.0°C to 95°C
Procedure: The method and principle of the experiment were as follows. As the temperature increases, the folded protein denatures, exposing hydrophobic regions, which bind to the SYPRO Orange detection dye, resulting in fluorescence. The point at 1/2 RFUmax is designated as the melting point (Tm). 22.5 µL of the assay sample and 2.5 µL of 50x SYPRO stock solution were added to a 96-well PCR plate (VOLO Semi-Skirted PCR Plate) so that the final concentration of the sample used in the experiment was 2 µM, and the fluorescence was measured using Quantstudio Real-Time PCR (Thermo Fisher scientific) while increasing the temperature by 0.5°C per 10 s from 10.0°C to 95°C. Each sample was tested three times. The fluorescence value of the antibody buffer was set as the background and subtracted, and the value with the greatest slope in the […] of the fluorescence value (dTRFU) was analyzed as the Tm of the corresponding protein.

[15] = system: SW780; assay: AlamarBlue cell growth inhibition, SW780; format: cell-based; settings: bladder, SW780, 4 days
Procedure: as §1

[16] = system: SCaBER; assay: AlamarBlue cell growth inhibition, SCaBER; format: cell-based; settings: bladder, 4 days
Procedure: as §1

B1: PS4-vcMMAE: PS4 WT maxibody conjugated with vcMMAE (monomethyl auristatin E); average DAR 4.09 (conjugate)
VH: QVQLVQSGGGLVNPGGSLRLSCAASGFPFSDHYMSWIRQAPGKGLEWVSYISNRGYTIHYADFVKGRFTISRDNAENTLYLQMNSLRAEDTAVYYCARDRGTIDAFDLWGQGTMVTVSS
VL: QSALTQPASVSGSPGQSITIPCSGTSDDIGRYNYVSWYQQHPGKAPKLLIYDVTRRSSGVSSHFSGSKSGSTASLIISGLQADDEADYFCSSFTNNRTVVFGGGTKLTVL
modifications: left off: things letters cannot carry; another chain or arm of the molecule; a dimerising Fc or GST; small tags and cut ends
Q: Which tumor size reduced ([1]; 10 mg/kg) does the source give for B1 here?
A: at least 60%

Q: What about the tumor growth ([1]; intraperitoneally 5 mg/kg or 10 mg/kg once every 5 days, 3 times, vs control group (PBS)) of the same molecule?
A: inhibited in a PS4-MMAE dose-dependent manner

Q: What about the IC50 [2] of the same molecule?
A: 14.1 ± 4.52 nM

Q: What about the “Maximum (% inhibition)” value [2] of the same molecule?
A: 55.65±6.45%

Q: What about the IC50 [3] of the same molecule?
A: 134 ± 43.4 nM

Q: And the “Maximum (% inhibition)” value [3]?
A: 79.6±11.3%

Q: And the anticancer efficacy [4]?
A: no anticancer efficacy was observed

Q: And the IC50 [5]?
A: 2.1 ± 1.2 nM

Q: What about the “Maximum (% inhibition)” value [5] of the same molecule?
A: 90.75±4.02%

Q: And the IC50 [6]?
A: 2.7 ± 1.21 nM

Q: And the “Maximum (% inhibition)” value [6]?
A: 73.78±2.18%

Q: What about the “Maximum (% inhibition)” value [7] of the same molecule?
A: 51.78±25.44%

Q: What about the IC50 [8] of the same molecule?
A: 5.22 ± 2.17 nM

Q: And the “Maximum (% inhibition)” value [8]?
A: 77.32±1.02%

Q: And the “size and weight of the extracted tumor tissue reduced” value ([9]; BALB/c nude or NOD/SCID mice, intraperitoneally 5 mg/kg or 10 mg/kg once every 5 days, 5 times, vs control group)?
A: approximately 55%

Q: What about the “tumor size compared to the time of drug administration” value ([9]; NOD/SCID, 10 mg/kg) of the same molecule?
A: no significant difference

Q: And the tumor growth ([9]; intraperitoneally 5 mg/kg or 10 mg/kg once every 5 days, 5 times, vs control group)?
A: inhibited in a PS4-MMAE dose-dependent manner

Q: What about the IC50 [10] of the same molecule?
A: 0.77 ± 0.63 nM

Q: And the “Maximum (% inhibition)” value [10]?
A: 77.97±2.03%

Q: And the IC50 [11]?
A: 2.21 ± 1.4 nM

Q: What about the “Maximum (% inhibition)” value [11] of the same molecule?
A: 95.48±2.44%

Q: And the “Maximum (% inhibition)” value [12]?
A: 89.88±2.5%

Q: And the IC50 [13]?
A: 9.79 nM and 18.8 nM

Q: What about the “Maximum (% inhibition)” value [13] of the same molecule?
A: 96.2±0.36% and 87.9±0.61%

Q: And the Tm [14]?
A: 64.67±0.24 °C

Q: And the IC50 [15]?
A: 1.78 ± 1.05 nM

Q: What about the “Maximum (% inhibition)” value [15] of the same molecule?
A: 90.43±2.32%

Q: And the IC50 [16]?
A: 1.88 ± 0.79 nM

Q: And the “Maximum (% inhibition)” value [16]?
A: 89.71±0.61%
